From US20240383984A1 (Genentech, published 2024) come the findings set out here.

Assay [1] deals with T1, cynomolgus FcRH5 (full-length, on cells) (cynomolgus monkey).
T1 construct: also called SVT2-Cyno-FcRH5; cyno FcRH5
T1 chain: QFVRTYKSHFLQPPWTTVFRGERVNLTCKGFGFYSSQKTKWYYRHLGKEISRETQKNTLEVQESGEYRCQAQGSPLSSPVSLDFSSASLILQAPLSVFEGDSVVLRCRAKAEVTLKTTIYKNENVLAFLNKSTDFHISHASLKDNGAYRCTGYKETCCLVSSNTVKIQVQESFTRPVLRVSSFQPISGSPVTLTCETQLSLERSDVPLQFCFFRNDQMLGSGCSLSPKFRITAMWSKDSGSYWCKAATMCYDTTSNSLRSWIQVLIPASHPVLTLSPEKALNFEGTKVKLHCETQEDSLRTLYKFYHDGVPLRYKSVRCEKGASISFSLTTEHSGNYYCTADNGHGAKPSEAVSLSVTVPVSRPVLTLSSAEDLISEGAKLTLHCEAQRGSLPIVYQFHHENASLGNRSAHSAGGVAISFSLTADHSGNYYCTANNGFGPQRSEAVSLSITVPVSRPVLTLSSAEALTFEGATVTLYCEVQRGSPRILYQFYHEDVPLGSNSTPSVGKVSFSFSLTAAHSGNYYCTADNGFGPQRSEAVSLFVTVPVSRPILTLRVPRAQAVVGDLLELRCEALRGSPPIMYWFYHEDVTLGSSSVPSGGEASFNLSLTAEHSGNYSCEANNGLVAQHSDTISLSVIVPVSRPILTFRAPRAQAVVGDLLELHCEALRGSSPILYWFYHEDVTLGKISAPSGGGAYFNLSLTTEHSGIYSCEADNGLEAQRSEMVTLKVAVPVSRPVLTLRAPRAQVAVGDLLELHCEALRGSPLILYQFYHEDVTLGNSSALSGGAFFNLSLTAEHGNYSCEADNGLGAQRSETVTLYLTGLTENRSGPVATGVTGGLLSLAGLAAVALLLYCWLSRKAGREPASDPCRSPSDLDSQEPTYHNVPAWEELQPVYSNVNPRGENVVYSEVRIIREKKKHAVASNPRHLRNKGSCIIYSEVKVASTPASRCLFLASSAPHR
As to the kind of experiment: FACS, SVT2 cells.

Assay [2] addresses T2, human FcRH5 protein fragment (soluble) (human, UniProt Q96RD9 16-851).
T2 construct: whole entry named; also called soluble human FcRH5; Human FcRH5 (BIACORE analyte)
T2 sequence: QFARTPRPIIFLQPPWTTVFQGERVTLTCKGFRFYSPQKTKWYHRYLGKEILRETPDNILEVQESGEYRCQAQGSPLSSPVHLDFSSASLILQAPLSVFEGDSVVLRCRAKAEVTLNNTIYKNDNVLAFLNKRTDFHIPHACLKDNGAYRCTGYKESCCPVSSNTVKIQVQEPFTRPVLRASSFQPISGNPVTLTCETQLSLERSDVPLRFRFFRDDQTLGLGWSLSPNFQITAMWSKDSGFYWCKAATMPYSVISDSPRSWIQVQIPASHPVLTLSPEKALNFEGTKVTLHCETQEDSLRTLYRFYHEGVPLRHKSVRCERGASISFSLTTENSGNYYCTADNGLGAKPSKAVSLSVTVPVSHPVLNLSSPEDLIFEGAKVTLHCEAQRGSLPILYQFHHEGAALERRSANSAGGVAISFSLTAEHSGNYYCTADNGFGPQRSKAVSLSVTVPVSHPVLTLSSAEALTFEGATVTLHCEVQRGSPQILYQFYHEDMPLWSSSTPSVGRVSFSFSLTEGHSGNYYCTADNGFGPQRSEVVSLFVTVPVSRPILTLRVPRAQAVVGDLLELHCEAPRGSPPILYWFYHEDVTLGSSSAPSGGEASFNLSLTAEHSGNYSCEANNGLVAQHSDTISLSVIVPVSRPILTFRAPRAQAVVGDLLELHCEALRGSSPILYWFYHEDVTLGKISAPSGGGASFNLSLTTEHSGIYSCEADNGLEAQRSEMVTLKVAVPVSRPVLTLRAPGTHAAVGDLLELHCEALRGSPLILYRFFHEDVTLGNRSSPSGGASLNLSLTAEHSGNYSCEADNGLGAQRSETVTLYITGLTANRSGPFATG
Kind of assay: SPR (BIACORE), Human FcRH5, 1:1 binding model. A general note: Surface plasmon resonance follows binding to a sensor surface in real time, without labels.

The term Kd denotes the concentration at which binding is half-saturated. In general, koff refers to the first-order rate constant of dissociation. A higher koff goes with fast dissociation. Usually kon stands for a measure of how fast the partners come together. Higher therefore signals fast association.

B1: 17B1 (antibody, mouse IgG2a, V domains shown)
VH: QVQLQQSGPELVRPGVSVKISCKGSGYTFTHYAMHWVKQSHTKSLEWIGMISSSSGNTNFNQKFMDKATMTVDKSSTTAYLELARLTFGDSAIYYCARWSYYALFDYWGQGTTVTVSS
VL: ENVLTQSPAIMSASPGEKVTMTCSADSSVDYIHWYQQKSNTSPKLWIYDTSKLASGVPGRFSGSGSGNSYSLTISSMEAEDFATYYCFQGSGYPLTFGSGTKLELK
notes: mouse mAb, Campaign C; recombinant murine IgG2a for SPR
In the case of B1, the binding result in assay [1] is “binds”.

B2: 1G7.v85/38E4.v1 TDB (bispecific antibody, V domains shown)
VH 1: EVQLVESGPGLVKPSETLSLTCTVSGFSLTRFGVHWVRQPPGKGLEWLGVIWRGGSTDYNAAFVSRLTISKDNSKNQVSLKLSSVTAADTAVYYCSNHYYGSSDYALDNWGQGTLVTVSS
VL 1: DIQMTQSPSSLSASVGDRVTITCKASQDVRNLVVWFQQKPGKAPKLLIYSGSYRYSGVPSRFSGSGSGTDFTLTISSLQPEDFATYYCQQHYSPPYTFGQGTKVEIK
VH 2: EVQLVQSGAEVKKPGASVKVSCKASGFTFTSYYIHWVRQAPGQGLEWIGWIYPENDNTKYNEKFKDRVTITADTSTSTAYLELSSLRSEDTAVYYCARDGYSRYYFDYWGQGTLVTVSS
VL 2: DIVMTQSPDSLAVSLGERATINCKSSQSLLNSRTRKNYLAWYQQKPGQSPKLLIYWTSTRKSGVPDRFSGSGSGTDFTLTISSLQAEDVAVYYCKQSFILRTFGQGTKVEIK
notes: knob-into-hole TDB; also called 1G7.v85 TDB; 1G7.v85 (TDB format)
In assay [2], B2 returned a Kd of 2.08 nM, a koff of 0.000746 s⁻¹ and a kon of 359000 M⁻¹ s⁻¹.
